Assay results from PMC11398566.
Each block holds one molecule with its values, some of them ahead of it.

Experiments:
[1] = biological target: Gα13 (GNA13, full-length, from the cDNA resource center) (UniProt Q14344)
[2] = biological target: Gα13 (GNA13, full-length, from the cDNA resource center) (UniProt Q14344); remark: listed apart in the source
[3] = biological target: Gα13 (GNA13, full-length, from the cDNA resource center) (UniProt Q14344); remark: listed apart in the source
[4] = biological target: Gα12 (GNA12, full-length, from the cDNA resource center) (UniProt Q03113)
[5] = biological target: Gα12 (GNA12, full-length, from the cDNA resource center) (UniProt Q03113); remark: listed apart in the source
[6] = biological target: Gα12 (GNA12, full-length, from the cDNA resource center) (UniProt Q03113); remark: listed apart in the source

Sequence of UniProt Q14344 (Q14344 whole entry): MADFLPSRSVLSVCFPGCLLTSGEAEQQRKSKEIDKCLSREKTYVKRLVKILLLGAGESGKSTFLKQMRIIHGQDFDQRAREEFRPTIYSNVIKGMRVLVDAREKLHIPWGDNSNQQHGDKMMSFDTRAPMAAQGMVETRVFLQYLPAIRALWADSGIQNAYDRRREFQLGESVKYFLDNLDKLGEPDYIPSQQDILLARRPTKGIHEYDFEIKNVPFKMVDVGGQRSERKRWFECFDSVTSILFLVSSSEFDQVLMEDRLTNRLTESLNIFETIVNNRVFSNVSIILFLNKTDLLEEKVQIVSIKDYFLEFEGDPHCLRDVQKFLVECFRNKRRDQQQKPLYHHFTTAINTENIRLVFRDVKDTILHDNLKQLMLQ
Sequence of UniProt Q03113 (Q03113 whole entry): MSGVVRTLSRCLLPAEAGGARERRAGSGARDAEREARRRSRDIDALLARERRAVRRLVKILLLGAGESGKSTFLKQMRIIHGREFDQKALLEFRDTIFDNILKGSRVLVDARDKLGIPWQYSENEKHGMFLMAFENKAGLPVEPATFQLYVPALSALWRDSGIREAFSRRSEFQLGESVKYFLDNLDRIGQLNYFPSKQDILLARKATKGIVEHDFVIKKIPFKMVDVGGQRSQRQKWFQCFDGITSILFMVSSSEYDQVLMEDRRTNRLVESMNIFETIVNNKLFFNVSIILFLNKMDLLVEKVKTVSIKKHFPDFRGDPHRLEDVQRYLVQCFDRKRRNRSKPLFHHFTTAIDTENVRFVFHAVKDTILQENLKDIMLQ

ebBRET between PDZ-RhoGEF-RlucII and rGFP-CAAX, ΔGα12/13 cells with Gα13 and GPR56-WT, time course after 20 nM 10C7, maximal ΔBRET after 24 min [1]: 0.7 ΔBRET
ebBRET between PDZ-RhoGEF-RlucII and rGFP-CAAX (recruitment to the plasma membrane), ΔGα12/13 cells with Gα13, constitutive, GPR56-WT DNA up to 250 ng; no increase without Gα13 [2]: 0.44 BRET ratio
ebBRET between PDZ-RhoGEF-RlucII and rGFP-CAAX, ΔGα12/13 cells with Gα13 and GPR56-T383A, time course after 20 nM 10C7, ΔBRET max [3]: 0.5 ΔBRET
Molecule: PDZ-RhoGEF-RlucII (Gα12/13 binding domain of human PDZ-RhoGEF, residues 281–483) (from UniProt O15085 281-483) (domain or fragment)

ebBRET between p115-RhoGEF-RlucII and rGFP-CAAX, ΔGα12/13 cells with Gα12 and GPR56-WT, time course after 20 nM 10C7, maximum ΔBRET at 8 min [4]: 0.19 ΔBRET
ebBRET between p115-RhoGEF-RlucII and rGFP-CAAX (recruitment to the plasma membrane), ΔGα12/13 cells with Gα12, constitutive, GPR56-WT DNA up to 250 ng; no increase without Gα12 [5]: 0.44 BRET ratio
ebBRET between p115-RhoGEF-RlucII and rGFP-CAAX, ΔGα12/13 cells with Gα12, constitutive, increasing GPR56-T383A DNA, maximum [5]: 0.228 BRET ratio
ebBRET between p115-RhoGEF-RlucII and rGFP-CAAX, ΔGα12/13 cells with Gα12 and GPR56-T383A, time course after 20 nM 10C7, ΔBRET max [6]: 0.2 ΔBRET
B1: p115-RhoGEF-RlucII (Gα12/13 binding domain of human p115-RhoGEF, residues 1–244) (domain or fragment)
chain: MEDFARGAASPGPSRPGLVPVSIIGAEDEDFENELETNSEEQNSQFQSLEQVKRRPAHLMALLQHVALQFEPGPLLCCLHADMLGSLGPKEAKKAFLDFYHSFLEKTAVLRVPVPPNVAFELDRTRADLISEDVQRRFVQEVVQSQQVAVGRQLEDFRSKRLMGMTPWEQELAQLEAWVGRDRASYEARERHVAERLLMHLEEMQHTISTDEEKSAAVVNAIGLYMRHLGVRTKSGDKKSGRNF
